{
  "source": "paper PMC6356362",
  "target": "recombinant GP of EBOV (Mayinga strain), mucin and TM domains-deleted protein (GP[change] sequence w (Zaire ebolavirus (EBOV), Mayinga strain), Q05320",
  "test": "SPR",
  "settings": "remark: other sources report otherwise",
  "data": [
    {"binder": "recombinant human surfactant protein D (hSP-D) dodecamers, P35247 21-375 (natural protein) AEMKTYSHRTMPSACTLVMCSSVESGLPGRDGRDGREGPRGEKGDPGLPGAAGQAGMPGQAGPVGPKGDNGSVGEPGPKGDTGPSGPPGPPGVPGPAGREGPLGKQGNIGPQGKPGPKGEAGPKGEVGAPGMQGSAGARGLAGPKGERGVPGERGVPGNTGAAGSAGAMGPQGSPGARGPPGLKGDKGIPGDKGAKGESGLPDVASLRQQVEALQGQVQHLQAAFSQYKKVELFPNGQSVGEKIFKTAGFVKPFTEAQLLCTQAGGQLASPRSAAENAALQQLVVAKNEAAFLSMTDSKTEGKFTYPTGESLVYSNWAPGEPNDDGGSEDCVEIFTNGKWNDRACGEKRLVVCEF", "values": [
      {"measurement": "Kd", "value": 330, "unit": "pM"},
      {"measurement": "koff", "value": 0.00121, "unit": "s⁻¹"},
      {"measurement": "kon", "value": "3.65e+06", "unit": "M⁻¹ s⁻¹"}
    ]}
  ]
}
